According to the supplement of paper PMC7125110:
± gives the standard error. For part of these data: Variants at the floor of the assay were thinned out.

B1: glmS ribozyme (parent)
chain: AUAAAAGCGCCAGAACUACAGAAAUGUAGUUGACGAGGAGGAGGUUUAUCGAAUUUUCGGCGGAUGCCUCCAAA

Columns and labels:
Conditions in all cases: with glucosamine-6-phosphate
glucosamine-6-phosphate [1] = variants of: B1; assay: kcat; higher = faster cleavage; RNA array
Procedure, shortened: (§1)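 Ribozyme variants carrying barcodes were transcribed in situ on sequenced MiSeq chips by E. coli RNA polymerase and tracked at 37 °C with a hybridised Cy3 probe. They were exposed to 40 μM to 10 mM glucosamine-6-phosphate in HEPES/KCl/Mg(OAc)2 buffer. kobs came from exponential decay fits of normalised per-tile medians, and kcat and KM from weighted Michaelis–Menten fits.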

glucosamine-6-phosphate [2] = variants of: B1; assay: KM; higher = weaker cofactor use; RNA array
Procedure, shortened: as §1

glucosamine-6-phosphate [3] = variants of: B1; assay: self-cleavage kobs at 2500 uM GlcN6P; higher = faster cleavage; RNA array
Procedure, shortened: as §1

glucosamine-6-phosphate [4] = variants of: B1; assay: self-cleavage kobs at 10000 uM GlcN6P; higher = faster cleavage; RNA array
Procedure, shortened: as §1

glucosamine-6-phosphate [5] = variants of: B1; assay: self-cleavage kobs at 40 uM GlcN6P; higher = faster cleavage; RNA array
Procedure, shortened: as §1

glucosamine-6-phosphate [6] = variants of: B1; assay: self-cleavage kobs at 640 uM GlcN6P; higher = faster cleavage; RNA array
Procedure, shortened: as §1

glucosamine-6-phosphate [7] = variants of: B1; assay: self-cleavage kobs at 160 uM GlcN6P; higher = faster cleavage; RNA array
Procedure, shortened: as §1

Variant	kcat (glucosamine-6-phosphate [1]) [s⁻¹]	KM (glucosamine-6-phosphate [2]) [µM]	self-cleavage kobs at 2500 uM GlcN6P (glucosamine-6-phosphate [3]) [s⁻¹]	self-cleavage kobs at 10000 uM GlcN6P (glucosamine-6-phosphate [4]) [s⁻¹]	self-cleavage kobs at 40 uM GlcN6P (glucosamine-6-phosphate [5]) [s⁻¹]	self-cleavage kobs at 640 uM GlcN6P (glucosamine-6-phosphate [6]) [s⁻¹]	self-cleavage kobs at 160 uM GlcN6P (glucosamine-6-phosphate [7]) [s⁻¹]
G13A G41A	6.21e-05 ± 2.2e-06	1770 ± 270	3.77e-05 ± 1.2e-05	5.25e-05 ± 8.1e-06	–	–	–
G13A G41U	5.73e-05 ± 8.7e-06	–	–	–	< 1e-05	–	–
A12C C70U C71U	0.000174 ± 1.1e-05	1270 ± 200	–	0.000154 ± 2.8e-05	–	6.04e-05 ± 1.5e-05	–
A12U C16A U56A	0.00194 ± 0.00074	–	0.00102 ± 0.00035	0.00247 ± 0.00041	0.000111 ± 2e-05	0.000636 ± 0.00015	–
G13C A53U	0.000137 ± 1.4e-05	5250 ± 1300	4.93e-05 ± 1.6e-05	8.95e-05 ± 1.3e-05	–	–	–
A12G G62C	< 1e-05	151 ± 74	–	< 1e-05	–	–	–
G13C U31C	0.0015 ± 0.00033	3460 ± 1200	0.000748 ± 0.00013	0.00109 ± 0.00014	3.14e-05 ± 1e-05	0.000211 ± 2.9e-05	0.000104 ± 4.3e-05
G13C A14U	0.000311 ± 2.1e-05	2100 ± 320	0.000186 ± 3e-05	0.00025 ± 3.1e-05	–	6.86e-05 ± 1.5e-05	–
G13A U56A A64G	0.000331 ± 5.8e-05	2310 ± 840	0.000158 ± 3e-05	0.000291 ± 6.6e-05	–	8.33e-05 ± 2.5e-05	–
G13C A14U C68U	1.07e-05 ± 1.2e-06	–	–	–	–	–	–
A12G A14U C58A G66C	0.000245 ± 7.5e-05	–	–	8.77e-05 ± 2.7e-05	–	–	–
A12U A39C U56G	0.00242 ± 0.00054	3430 ± 1000	0.00138 ± 0.00027	0.00168 ± 0.00031	2.75e-05 ± 1e-05	0.000287 ± 0.00011	0.000109 ± 1.8e-05
G13C A14C U45A	0.000417 ± 0.00017	–	0.000212 ± 4.3e-05	0.000262 ± 5.6e-05	–	–	–
G13C C16A	0.000101 ± 1.7e-06	712 ± 55	7.81e-05 ± 1.4e-05	9.42e-05 ± 1.4e-05	–	4.82e-05 ± 1.7e-05	–
A12U G41C	0.000373 ± 8.7e-05	1830 ± 770	0.000168 ± 2.7e-05	0.000373 ± 5e-05	–	0.000108 ± 1.2e-05	2.68e-05 ± 1.1e-05
A12G A53U	0.00085 ± 8.4e-05	4340 ± 620	0.000319 ± 3e-05	0.00058 ± 6.7e-05	–	0.000112 ± 1e-05	2.34e-05 ± 7.6e-06

Variant	kcat (glucosamine-6-phosphate [1]) [s⁻¹]	KM (glucosamine-6-phosphate [2]) [µM]	self-cleavage kobs at 2500 uM GlcN6P (glucosamine-6-phosphate [3]) [s⁻¹]	self-cleavage kobs at 10000 uM GlcN6P (glucosamine-6-phosphate [4]) [s⁻¹]	self-cleavage kobs at 40 uM GlcN6P (glucosamine-6-phosphate [5]) [s⁻¹]	self-cleavage kobs at 640 uM GlcN6P (glucosamine-6-phosphate [6]) [s⁻¹]	self-cleavage kobs at 160 uM GlcN6P (glucosamine-6-phosphate [7]) [s⁻¹]
A12G A53G	0.0017 ± 0.00017	4470 ± 620	0.000633 ± 7e-05	0.00114 ± 0.00015	–	0.000231 ± 3.1e-05	5.44e-05 ± 7.9e-06
A12U G40C	0.00584 ± 0.0009	1420 ± 310	0.00529 ± 0.0011	0.00509 ± 0.00057	0.000175 ± 2e-05	0.0014 ± 0.00029	0.000567 ± 9.5e-05
A12G U45A	0.00242 ± 0.00064	3500 ± 1300	0.000811 ± 0.00014	0.00207 ± 0.00031	4.21e-05 ± 1.5e-05	0.00041 ± 5.3e-05	0.000103 ± 1.6e-05
A12G U45C	6.32e-05 ± 3.9e-06	2510 ± 620	3.29e-05 ± 1.6e-05	5.04e-05 ± 8e-06	–	–	–
A12G U45G	0.000591 ± 1.8e-05	5260 ± 300	0.000197 ± 4.2e-05	0.000386 ± 3.9e-05	–	6.36e-05 ± 1.3e-05	–
A12G G40A	0.000633 ± 0.00014	4040 ± 1300	0.000218 ± 2.3e-05	0.000486 ± 6.3e-05	–	9.61e-05 ± 8.9e-06	1.6e-05 ± 7.3e-06
G13C G41A	5.76e-05 ± 4.7e-06	–	–	–	< 1e-05	< 1e-05	–
A12U	0.0933 ± 0.014	1340 ± 230	0.049 ± 0.0042	0.0963 ± 0.0052	0.00275 ± 4.9e-05	0.0283 ± 0.0012	0.00899 ± 0.00054
A12G	0.00143 ± 6.1e-05	4240 ± 270	0.000587 ± 2.8e-05	0.001 ± 1.6e-05	1.01e-05 ± 1.5e-06	0.000189 ± 3.5e-06	5.14e-05 ± 1.6e-06
A12C U69G	6.77e-05 ± 5.2e-06	–	7.6e-05 ± 9.1e-06	5.86e-05 ± 7.7e-06	–	6.7e-05 ± 8.9e-06	5.5e-05 ± 1.2e-05
A12C U69C	0.0042 ± 0.0012	1520 ± 630	0.00295 ± 0.00069	0.00396 ± 0.00074	0.000133 ± 2.3e-05	0.000885 ± 0.0002	0.000486 ± 0.00013
A12U C16A A33U A36C G38A G62A U69A C71U	2.12e-05 ± 1.1e-06	–	–	–	–	–	–
A12U C71G	0.00158 ± 0.00072	–	0.000947 ± 0.00021	0.00305 ± 0.00048	0.000203 ± 2.3e-05	0.00125 ± 0.00015	0.000316 ± 5.2e-05
A12U A33U	0.000444 ± 0.0001	3790 ± 1500	0.00015 ± 1.6e-05	0.000348 ± 3.2e-05	–	7.77e-05 ± 8.6e-06	–
A12U C50U C67G	4.36e-05 ± 2.1e-05	–	–	–	–	6.16e-05 ± 2.1e-05	–
